# Results taken from the RNAGym collection of RNA variant scans (doi:10.1073/pnas.2313332121).
# B1: TPR t1 (parent)
# chain: GACCAAUCUGCCCUCAGAGCUCGAGAACAUCUUCGGAUGCAGAGGAGGCAGGCUUCGGUGGCGCGAUAGCGCCAACGUCCUCAACCUCCAAUGCAUCCCACCACAUGAUGAUGCCUGAAGAGCCUUGGUUUUUUG
# Variants of: B1
# Assay: polymerase ribozyme fitness, log enrichment relative to wild type (log ratio); higher = more active; in vitro selection for triplet polymerase activity
# Procedure, shortened: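 One round of in vitro selection, in triplicate, was applied to PCR-built, transcribed mutant libraries of each subunit of a heterodimeric triplet polymerase ribozyme. The steps were annealing with a biotinylated primer, partner subunit and triplets, incubation frozen at −7 °C, gel excision of extended constructs, streptavidin-bead capture and RT-PCR. Fitness is the logarithm, base 2, of genotype enrichment over wild-type enrichment from inverse-variance-weighted replicate averages of Illumina-sequenced inputs and outputs, keeping genotypes with ≥10 input reads and ≥1 read per output.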
row,Variant,polymerase ribozyme fitness (log ratio)
1,A41G G45U C62A U78A U112G,-5.01
2,A41G C85A C124U G128C U133G,-3.58
3,A41U C56G G71U C79U G117C,-6.29
4,C40U A83C,-0.818
5,C40U G61A,-0.522
6,C40U G61C,-2.59
7,A41G A103C,-5.33
8,C40G G71U,-1.23
9,C40U G61A U78C,-0.104
10,C40G G63A,-1.91
11,C40G G63U,-1.85
12,A41G C73U A100U,-1.33
13,A41C G57C A90G C97A,-4.54
14,C40U C76G G120C,0.524
15,C40U A74C G77U C94U C114G,-2.59
16,A41C U92A,-2.21
17,C40U C85A G120C,-0.223
18,A41G A121U,1.72
19,A41G A46U G77U,-3.75
20,C40U C70A C102A C124A,-3.93
21,C40G G71U A105U,-3.41

row,Variant,polymerase ribozyme fitness (log ratio)
1,C40U A90G C123U,1.26
2,C40U A74G,-0.128
3,C40U A90C U132A,-1.85
4,C40U G48U C79A C124U,-3.57
5,C40U G113C,-2.55
6,A41G G57A C64U U130A,-1.6
7,A41C G58A,-0.278
8,C40G G107A,-6.63
9,A41C U92G G120U U129C,-2.62
10,C40G U92A U109A U116C,-5.03
11,A41C C73G,-1.33
12,C40U G48U C62G,-3.32
13,A41C G93U,-1.92
14,A41U A46C A91G U112A,-3.27
15,C40G U55A G63U C124U,0.229
16,A41G C101A,-1.25
17,A41U C56U A75G U78C C82G A118G G120U A121U U129G,-3.43
18,A41G G127C,-0.942
19,A41C C70A U81A U92C,-5.78
20,C40G U92G G120A,-2.62
21,C40U G69A C99A C114G,-8.02

row,Variant,polymerase ribozyme fitness (log ratio)
1,A41G G48A C80U A95G C124A,0.0211
2,A41C G51U,-3.29
3,A41G C73G G93C,-2.94
4,A41G C49G U55A A111C,-1.63
5,A41C C82U C94G C97U,-6.09
6,C40U C82U A84G G107U,-6.74
7,C40U C76U,-0.869
8,C40U U55C C70A U96A,-3.02
9,A41U C49G A83C U133G,-1.44
10,C40U C53U A66G,-1.67
11,A41U C72U C88U,-1.2
12,C40U C56A A91G,-2.75
13,C40G U81A,-2.17
14,C40U C85A U129G U132C,-5.2
15,A41G C79G,-4.32
16,C40U U67C G71U C89U U109A G117C A121U G128A U134A,-5.54
17,C40U U55C,-0.711
18,A41G G45A A83C,-1.53
19,A41G C56U C72G G113A G128U,-5.35
20,C40U C73U G113A,-1.98
21,C40G U87G,-1.6

row,Variant,polymerase ribozyme fitness (log ratio)
1,A41C G47C C49U C86A,-2.65
2,C40U G57U,-0.292
3,C40U C62U C85G,-2.44
4,A41U A43U U54G G93A U106G,-3.16
5,C40U G45U U55A C73U,-1.76
6,C40U C53A G60A G69U,-0.0565
7,A41G G110U,-1.97
8,C40U G47C G58A G117A,-4.37
9,C40G G61U A91U C104U,-3.37
10,C40U A46U A100U,-3.37
11,C40U G42C C53A C104A,-4.78
12,A41U A43U,-1.37
13,C40G U55G C62U U78G,-2.04
14,A41C G52A A74U C88U,-2.04
15,C40U G52C G93A,-1.38
16,C40U C53U A121G,1.58
17,C40U G44U U78A C89A A111C G117A G135C,-3.17
18,A41G C53G A84C U126A,-2.86
19,A41G G61C C94A A111U,-5.2
20,C40U C62A,-1.61
